One molecule from paper doi:10.1101/2025.03.30.646247 (bioRxiv, 2025) can be followed below.

The target of the assay is T1, 6xHis-CIPK6 (Arabidopsis thaliana, UniProt O65554 1-441).
T1 sequence: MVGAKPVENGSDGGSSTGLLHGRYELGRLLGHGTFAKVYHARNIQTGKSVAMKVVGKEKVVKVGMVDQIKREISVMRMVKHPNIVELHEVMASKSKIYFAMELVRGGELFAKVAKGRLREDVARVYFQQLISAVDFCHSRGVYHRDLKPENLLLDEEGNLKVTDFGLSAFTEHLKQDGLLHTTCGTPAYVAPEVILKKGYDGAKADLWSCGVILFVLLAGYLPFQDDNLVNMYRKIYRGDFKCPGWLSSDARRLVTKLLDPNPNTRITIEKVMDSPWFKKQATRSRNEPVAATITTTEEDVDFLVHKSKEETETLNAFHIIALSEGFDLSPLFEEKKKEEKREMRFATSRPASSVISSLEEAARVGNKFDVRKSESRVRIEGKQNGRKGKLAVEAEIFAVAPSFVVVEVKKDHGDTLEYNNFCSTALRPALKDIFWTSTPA
The experiment in a line: pull-down.

B1: GST-RbohD-N (domain or fragment)
chain: MKMRRGNSSNDHELGILRGANSDTNSDTESIASDRGAFSGPLGRPKRASKKNARFADDLPKRSNSVAGGRGDDDEYVEITLDIRDDSVAVHSVQQAAGGGGHLEDPELALLTKKTLESSLNNTTSLSFFRSTSSRIKNASRELRRVFSRRPSPAVRRFDRTSSAAIHALKGLKFIATKTAAWPAVDQRFDKLSADSNGLLLSAKFWECLGMNKESKDFADQLFRALARRNNVSGDAITKEQLRIFWEQISDESFDAKLQVFFDMVDKDEDGRVTEEEVAEIISLSASANKLSNIQKQAKEYAALIMEELDPDNAGFIMIENLEMLLLQAPNQSVRMGDSRILSQMLSQKLRPAKESNPLVRWSEKIKYFILDNWQR
Turning to B1, the binding result is “binds”.
